Measured values published in patent publication US7304033 (Bristol-Myers Squibb, dated 2007).

What was measured:
CD86Ig = biological target: T1, CD86Ig (UniProt P42081 24-247); test: SPR, CD86Ig immobilized, monomeric analytes
T1 construct: extracellular domain; also called soluble CD86Ig; B7-2 Ig
Description: (§1) Association and disassociation analyses were performed using BIA evaluation 2.1 Software (Pharmacia). Association rate constants $kon$ were calculated in two ways, assuming both homogenous single-site interactions and parallel two-site interactions. For single-site interactions, $kon$ values were calculated according to the equation $R_t=Req(1-\exp^{-ks(t-t_0)})$, where R_t is a response at a given time, t; $Req$ is the steady-state response; t_0 is the time at the start of the injection; and $k_s=dR/dt=kon \cdot Ckoff$, and where C is a concentration of analyte, calculated in terms of monomeric binding sites. For two-site interactions $kon$ values were calculated according to the equation $R_t=Req1(1-\exp^{-ks1(t-t_0)})+Req2(1-[…])$. For each model, the values of $kon$ were determined from the calculated slope (to about 70% maximal association) of plots of k_s versus C.

CD80Ig = biological target: T2, CD80Ig (UniProt P33681 35-242); test: SPR, CD80Ig immobilized, monomeric analytes
T2 construct: extracellular domain; also called soluble CD80Ig; B7-1 Ig
T2 sequence (P33681 whole entry, the tested form may be a part): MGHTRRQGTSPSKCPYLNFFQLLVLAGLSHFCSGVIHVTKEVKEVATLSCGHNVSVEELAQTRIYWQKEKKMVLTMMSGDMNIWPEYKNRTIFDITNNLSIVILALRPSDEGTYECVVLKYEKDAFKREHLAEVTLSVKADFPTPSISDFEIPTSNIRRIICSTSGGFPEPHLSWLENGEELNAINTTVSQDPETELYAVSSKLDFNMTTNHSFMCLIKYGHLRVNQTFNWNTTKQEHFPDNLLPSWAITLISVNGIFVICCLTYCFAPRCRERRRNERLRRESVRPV
Description: as §1

T1 sequence (P42081 24-247): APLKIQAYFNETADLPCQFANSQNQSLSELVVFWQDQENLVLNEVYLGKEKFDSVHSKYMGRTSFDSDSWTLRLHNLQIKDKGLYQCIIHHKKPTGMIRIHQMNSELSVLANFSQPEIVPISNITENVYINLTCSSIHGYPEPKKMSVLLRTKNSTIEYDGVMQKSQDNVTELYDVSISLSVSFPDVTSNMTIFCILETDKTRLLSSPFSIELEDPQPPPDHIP

B1: L104EA29YXC120S (receptor)
chain: MHVAQPAVVLASSRGIASFVCEYASPGKYTEVRVTVLRQADSQVTEVCAATYMMGNELTFLDDSICTGTSSGNQVNLTIQGLRAMDTGLYICKVELMYPPPYYEGIGNGTQIYVIDPEPSPDSD
notes: Monomeric; prepared in an identical manner to CTLA4XC120S; also called single chain L104EA29Y extracellular domain
CD86Ig
  fold higher affinity than CTLA4X120S: ~2 fold
  fold slower rate of dissociation than CTLA4X120S: ~3 fold
CD80Ig
  fold higher affinity than CTLA4X120S: ~2 fold
  fold slower rate of dissociation than CTLA4X120S: ~3 fold
